B2: Full-length mouse BICDR1 (natural protein)
chain: MSAFCLGLAGRASAPAEPDSACCMELPAGAGDAVRSPATAAALVSFPGGPGELELALEEELALLAAGERSSEPGEHPQAEPESPVEGHGPPLPPPPTQDPELLSVIRQKEKDLVLAARLGKALLERNQDMSRQYEQMHKELTDKLEHLEQEKHELRRRFENREGEWEGRVSELETDVKQLQDELERQQLHLREADREKTRAVQELSEQNQRLLDQLSRASEVERQLSMQVHALKEDFREKNSSTNQHIIRLESLQAEIKMLSDRKRELEHRLSATLEENDLLQGTVEELQDRVLILERQGHDKDLQLHQSQLELQEVRLSYRQLQGKVEELTEERSLQSSAATSTSLLSEIEQSMEAEELEQEREQLRLQLWEAYCQVRYLCSHLRGNDSADSAVSTDSSMDESSETSSAKDVPAGSLRTALNDLKRLIQSIVDGVEPTVTLLSVEMTALKEERDRLRVTSEDKEPKEQLQKAIRDRDEAIAKKNAVELELAKCKMDMMSLNSQLLDAIQQKLNLSQQLEAWQDDMHRVIDRQLMDTHLKEQSRPAAAAFPRGHGVGRGQEPSTADGKRLFSFFRKI

How the values were obtained:
Experiment in all cases: cryo-EM structure
[1] = target: Dynactin (pig (endogenous in pig brain)) (UniProt F2Z5G5)
Full-length mouse BICDR1 = target: B2
cryo-EM structure = target: the molecule itself

Human cytoplasmic dynein-1 (from UniProt Q14204;Q13409;O43237;Q9NP97) (complex)
stoichiometry N (dynein dimers in the complex) [1]: 2

B1: Dynein light intermediate chain (natural protein)
chain: MAPVGVEKKLLLGPNGPAVAAAGDLTSEEEEGQSLWSSILSEVSTRARSKLPSGKNILVFGEDGSGKTTLMTKLQGAEHGKKGRGLEYLYLSVHDEDRDDHTRCNVWILDGDLYHKGLLKFAVSAESLPETLVIFVADMSRPWTVMESLQKWASVLREHIDKMKIPPEKMRELERKFVKDFQDYMEPEEGCQGSPQRRGPLTSGSDEENVALPLGDNVLTHNLGIPVLVVCTKCDAVSVLEKEHDYRDEHLDFIQSHLRRFCLQYGAALIYTSVKEEKNLDLLYKYIVHKTYGFHFTTPALVVEKDAVFIPAGWDNEKKIAILHENFTTVKPEDAYEDFIVKPPVRKLVHDKELAAEDEQVFLMKQQSLLAKQPATPTRASESPARGPSGSPRTQGRGGPASVPSSSPGTSVKKPDPNIKNNAASEGVLASFFNSLLSKKTGSPGSPGAGGVQSTAKKSGQKTVLSNVQEELDRMTRKPDSMVTNSSTENEA
binding result (Full-length mouse BICDR1): binds

B2
stoichiometry N (adaptors per dynein-dynactin complex) [1]: 2
binding result (cryo-EM structure): binds

Reference: doi:10.1101/2022.03.17.482250 (bioRxiv, 2022)
